From IntAct's records for PubMed 22321644

B1: Staphylokinase (Staphylococcus aureus (strain N315)), Q99SU7 (parent)
chain: MLKRSLLFLTVLLLLFSFSSITNEVSASSSFDKGKYKKGDDASYFEPTGPYLMVNVTGVDSKGNELLSPHYVEFPIKPGTTLTKEKIEYYVEWALDATAYKEFRVVELDPSAKIEVTYYDKNKKKEETKSFPITEKGFVVPDLSEHIKNPGFNLITKVVIEKK

Variants of: B1
Conditions: with plmn_human PLG

Variant | effect of a mutation on the interaction
P69L | disrupting interaction

Variants of: B1
Conditions: with plmn_human PLG
Remark: another data set of the same source

Variant | effect of a mutation on the interaction
P69L | decreasing interaction

Variants of: B1
Conditions: with plmn_human PLG
Remark: another data set of the same source

Variant | effect of a mutation on the interaction
V72A | disrupting interaction

Variants of: B1
Conditions: with plmn_human PLG
Remark: another data set of the same source

Variant | effect of a mutation on the interaction
V72A | decreasing interaction

Variants of: B1
Conditions: with plmn_human PLG
Remark: another data set of the same source

Variant | effect of a mutation on the interaction
V72Y | decreasing interaction

Variants of: B1
Conditions: with plmn_human PLG
Remark: another data set of the same source

Variant | effect of a mutation on the interaction
V72F | decreasing interaction
Y71F | decreasing interaction
